Reference: publication PMC6362427, “Identification of Three (Iso)flavonoid Glucosyltransferases From Pueraria lobata” (Frontiers in Plant Science, 2019)

What was measured:
HPLC glucosylation assay [1] = substrate: O=c1c(-c2ccc(O)cc2)coc2cc(O)ccc12; experiment: HPLC glucosylation assay; type: biochemical, Pueraria montana; conditions: UDP-glucose co-substrate (5 mM in the activity assay), 50 mM Tris-HCl pH 8.0, 30°C
HPLC glucosylation assay [2] = substrate: O=c1c(-c2ccc(O)cc2)coc2cc(O)cc(O)c12; experiment: HPLC glucosylation assay; type: biochemical, Pueraria montana; conditions: UDP-glucose co-substrate (5 mM in the activity assay), 50 mM Tris-HCl pH 8.0, 30°C

Protein | Km (HPLC glucosylation assay [1]) [µM] | kcat (HPLC glucosylation assay [1]) [s⁻¹] | kcat/Km (HPLC glucosylation assay [1]) [M⁻¹ s⁻¹] | Km (HPLC glucosylation assay [2]) [µM] | kcat (HPLC glucosylation assay [2]) [s⁻¹] | kcat/Km (HPLC glucosylation assay [2]) [M⁻¹ s⁻¹]
PlUGT57 (Pueraria montana var. lobata) (protein, full-length ORF (464-477 residues range for the three), GST fusion in pGEX-2T (given as C-terminal fusion with GST tag), E. coli BL21, glutathione Sepharose purified) MGSEAPIHVLMVSYPAQGHINPLLRLGKCLAAKGLFVTFTTSETAGKDMRKANNITDKSVIPVGDGFLKFDFFEDGMADDDVSKKKSLSDVSAQLELVGKQYVSQMIKKHAESHHPISCIINNPFVPWVCDVAAEHAIPSAMLWIQSSAVFTAYYSYFYKLVSFPSDADPYVDVQLSSVVLKHNEVPDFLHPFSPYRFLGTLILEQFKNLSKPFCVLVDSFEELEHDYIDYLSKFLDIRPVGPLFKTPIATGTSDIRGDFMKSDDCIEWLNSRAPASVVYISFGSIVYLPQEQVTEIAHGLLNSHVSFLWVLKPPPKGYGVPPHVLPDGFFEGTRDKGKVVQWSPQEEVLAHPSVACFLTHCGWNSSMEALTLGMPMLTFPAWGDQVTNAKFLVDVFGVGIKLGYGHAAKKVVSREEVKKCLLEATVGPKAEELKQISFKWKKAAEAAVAANGSSARNLDAFMKDIKKRGAVGVNEI | 16.3 ± 1.87 | 0.034 ± 0.0009 | 2100 | 7.68 ± 3.58 | 0.11 ± 0.01 | 13700
PlUGT4 (Pueraria montana var. lobata) (protein, full-length ORF (464-477 residues range for the three), GST fusion in pGEX-2T (given as C-terminal fusion with GST tag), E. coli BL21, glutathione Sepharose purified) MEKPHIAVVPSPGFTHLVPILEFSKRLLHLHPEFHITCFIPSVGSPPSSSKAYLQTLPPTITSIFLPPITLDDVPDPSILALQIELSVNLSLPYIKQELESLCSRAKVVALVVDVFANGALDFAKELNLLSYIYLPQSAMLLSLYFYSTKLDEILSSAFRDLTKPIEIPGCVPIHNKDLPIHFQNLSSIGYKGFLERSKRFHVPDGVFMNTFLELEPGAIRALQELVKGKPKVYPVGPIIQMGSVGHENRVECLTWLDKQQEPNSVLYVSFGSGGTLSQEQLNELAFGLELSGQKFLWVVRAPSSVATVGYFCAETKDPLEFLPHGFLERTKEQGLVVPSWAPQIQVLSHGATGGFLSHCGWNSVLESVVQGVPVITWPLFAEQSLNAAMLTDDLKVALRPKVNESGLAEREEIAKVVRGLMEGNEGMEIRKRMGLLKIAAANAIKEDGSSTKTLSEVATSSRGF | 110.8 ± 36.4 | 0.0075 ± 0.0009 | 67.1 | 87.3 ± 38.9 | 0.014 ± 0.0021 | 156
